Assay results from patent publication KR20190053464A (dated 2019).

B1: 7H3C11FW (antibody, V domains shown)
VH: QVQLVESGGGVVQPGRSLRLSCAASGFAFGSYTMHWVRQAPGKGLEWVTLISFDGRSKLYGDSVKGRFTISRDNSKNSLYLQMNSLRAEDTAVYYCARGSVRGEAAFDLWGQGTLVTVSS
VL: SYELTQPPSVSVSPGQTASITCSGDNLRTKYVSWYQQKPGQSPVLVIYQDTRRPSGIPERFSGSNSGNTATLTISGTQAMDEADYYCMTWDVDTTSMIFGGGTKLTVL

Target: 인간 IL-17A (human IL-17A, R&D system) (human, UniProt Q16552 20-155, limits assumed)
Assay: cell-based or functional assay

인간 IL-17A (human IL-17A, R&D system), sequence (Q16552 20-155 limits assumed): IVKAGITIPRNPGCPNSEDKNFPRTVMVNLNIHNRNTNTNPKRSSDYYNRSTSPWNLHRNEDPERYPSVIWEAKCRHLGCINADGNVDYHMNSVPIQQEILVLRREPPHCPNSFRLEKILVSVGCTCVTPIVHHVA

| Molecule | IC50 of inhibition of IL-17A-dependent IL-6 secretion, HeLa cells [nM] | fold better IC50 than secukinumab in-house, HeLa IL-6 assay [fold] |
| --- | --- | --- |
| 세쿠키누맙 (secukinumab), made in-house (antibody) | 4.16 |  |
| B1 | 2.88 | ~1.4 |
